B1: Lon protease homolog, mitochondrial (Homo sapiens), P36776-1 (parent)
chain: MAASTGYVRLWGAARCWVLRRPMLAAAGGRVPTAAGAWLLRGQRTCDASPPWALWGRGPAIGGQWRGFWEASSRGGGAFSGGEDASEGGAEEGAGGAGGSAGAGEGPVITALTPMTIPDVFPHLPLIAITRNPVFPRFIKIIEVKNKKLVELLRRKVRLAQPYVGVFLKRDDSNESDVVESLDEIYHTGTFAQIHEMQDLGDKLRMIVMGHRRVHISRQLEVEPEEPEAENKHKPRRKSKRGKKEAEDELSARHPAELAMEPTPELPAEVLMVEVENVVHEDFQVTEEVKALTAEIVKTIRDIIALNPLYRESVLQMMQAGQRVVDNPIYLSDMGAALTGAESHELQDVLEETNIPKRLYKALSLLKKEFELSKLQQRLGREVEEKIKQTHRKYLLQEQLKIIKKELGLEKDDKDAIEEKFRERLKELVVPKHVMDVVDEELSKLGLLDNHSSEFNVTRNYLDWLTSIPWGKYSNENLDLARAQAVLEEDHYGMEDVKKRILEFIAVSQLRGSTQGKILCFYGPPGVGKTSIARSIARALNREYFRFSVGGMTDVAEIKGHRRTYVGAMPGKIIQCLKKTKTENPLILIDEVDKIGRGYQGDPSSALLELLDPEQNANFLDHYLDVPVDLSKVLFICTANVTDTIPEPLRDRMEMINVSGYVAQEKLAIAERYLVPQARALCGLDESKAKLSSDVLTLLIKQYCRESGVRNLQKQVEKVLRKSAYKIVSGEAESVEVTPENLQDFVGKPVFTVERMYDVTPPGVVMGLAWTAMGGSTLFVETSLRRPQDKDAKGDKDGSLEVTGQLGEVMKESARIAYTFARAFLMQHAPANDYLVTSHIHLHVPEGATPKDGPSAGCTIVTALLSLAMGRPVRQNLAMTGEVSLTGKILPVGGIKEKTIAAKRAGVTCIVLPAENKKDFYDLAAFITEGLEVHFVEHYREIFDIAFPDEQAEALAVER
partner: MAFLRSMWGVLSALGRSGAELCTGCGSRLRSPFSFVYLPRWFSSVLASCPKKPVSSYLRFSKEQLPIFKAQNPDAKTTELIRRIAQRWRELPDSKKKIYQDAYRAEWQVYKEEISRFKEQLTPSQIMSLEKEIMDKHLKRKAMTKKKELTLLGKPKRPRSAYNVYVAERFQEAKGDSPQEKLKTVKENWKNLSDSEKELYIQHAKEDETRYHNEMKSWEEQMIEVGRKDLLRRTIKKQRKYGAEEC

Variants of: B1
Settings: with tfam_human TFAM

Variant	effect of a mutation on the interaction
P676S	with no effect
R721G	with no effect

— IntAct's records for PubMed 25574826
